# Measurements published in IntAct's records for PubMed 20802463.
# Molecular target: rfa2_human RPA2 (UniProt P15927)
# Sequence (P15927 whole entry): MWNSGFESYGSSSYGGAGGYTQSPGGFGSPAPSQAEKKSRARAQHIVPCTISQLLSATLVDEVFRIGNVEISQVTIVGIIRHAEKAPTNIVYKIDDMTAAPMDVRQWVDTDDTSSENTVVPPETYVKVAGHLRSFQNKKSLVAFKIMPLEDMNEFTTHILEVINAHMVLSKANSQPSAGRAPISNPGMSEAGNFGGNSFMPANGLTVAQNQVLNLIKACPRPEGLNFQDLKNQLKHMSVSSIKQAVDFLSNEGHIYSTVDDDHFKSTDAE
row,Substance,effect of a mutation on the interaction
1,"Bifunctional 3'-5' exonuclease/ATP-dependent helicase WRN (Homo sapiens), Q14191 T1152A",disrupting interaction
2,"Bifunctional 3'-5' exonuclease/ATP-dependent helicase WRN (Homo sapiens), Q14191 S991A",disrupting interaction
3,"Bifunctional 3'-5' exonuclease/ATP-dependent helicase WRN (Homo sapiens), Q14191 S1256A",disrupting interaction

# Molecular target: rfa2_human RPA2 (UniProt P15927)
# Remark: another data set of the same source
row,Substance,effect of a mutation on the interaction
1,"Bifunctional 3'-5' exonuclease/ATP-dependent helicase WRN (Homo sapiens), Q14191 S1292A",disrupting interaction
2,"Bifunctional 3'-5' exonuclease/ATP-dependent helicase WRN (Homo sapiens), Q14191 S1141A",disrupting interaction
3,"Bifunctional 3'-5' exonuclease/ATP-dependent helicase WRN (Homo sapiens), Q14191 S1058A",disrupting interaction
